Test system: MS2 coat protein
Experiment: apparent KD of MS2 coat protein; designed switch direction (-1 OFF switch, 1 ON switch): 1; higher = weaker reporter binding
Procedure, shortened: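 On Illumina chips, designed RNA switches with common flanks were made by stalled E. coli RNA polymerase. Titrations with SNAP-549-labelled MS2 coat protein, doubling from 0.7 or 1.5 nM to 3 µM, were done with no input, with 200 uM small-molecule ligand, or with an oligonucleotide input. Apparent KD is the median per design over clusters, from curve fits of normalised cluster fluorescence.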

[1] = input ligand: microRNA oligo, concentration not stated

Sequence: GUGGUGGGUUGAGGAUAUUGGUUGUCGUUGUCCCACAUGAGGAUCACCCAUGUGGGUUGUGGUUUUGAGAAGGUUGGUUGCUGG [salish99_SSNG2_r04_052] (Eterna round: R96, puzzle: Same State NG 2)
- apparent KD of MS2 coat protein [1]: 12.9 nM

Sequence: UAGUGCAUUAGAGGAUAUUCUUACGACACGAGUAAGACAUGAGGAUCUCCCAUGUUGUGGCAUGGGAAGAAGGCUGAUGUGCUA [Omei SS(NG)2 Bv8] (Eterna round: R96, puzzle: Same State NG 2)
- apparent KD of MS2 coat protein (input ligand: FMN 200 uM): 52.5 nM
- apparent KD of MS2 coat protein [1]: 6.84 nM
- apparent KD of MS2 coat protein (input ligand: none): 155 nM

Sequence: AGGCUCAGAGCAGGAUAUAUGUGAUCACAUGAGGAUCACCCAUGUCUCGAGCUUCGGCUCGAGACAUAGAAGGGCUCUGAGCCA [SSNG2/3-B1] (Eterna round: R96, puzzle: Same State NG 2)
- apparent KD of MS2 coat protein (input ligand: FMN 200 uM): 2490 nM
- apparent KD of MS2 coat protein [1]: 39.3 nM
- apparent KD of MS2 coat protein (input ligand: none): 28.3 nM

Sequence: CAAGGACGGACACAGGAUAUCCUCACCUACACAUGAGGAUCACCCAUGUCAUAAAAGAUGGUGCAGGAGAAGGGUGCGGCGUCAA [Zarelaesdi] (puzzle: Same State 2)
- apparent KD of MS2 coat protein (Eterna round: R95, input ligand: FMN 200 uM): 7.93 nM
- apparent KD of MS2 coat protein (Eterna round: R95, input ligand: microRNA oligo, concentration not stated): 8.32 nM
- apparent KD of MS2 coat protein (Eterna round: R95, input ligand: none): 6.36 nM

Sequence: GGUGACUUAAGAGGAUAUCCCGUAACAUUCGUCGAUACGAGACAUGAGGAUCACCCAUGUGAAAUGGAGAAGGCUUUCGCAAAG [Eternabot solution 48] (Eterna round: R96, puzzle: Same State NG 2)
- apparent KD of MS2 coat protein (input ligand: FMN 200 uM): 52.7 nM
- apparent KD of MS2 coat protein [1]: 40 nM
- apparent KD of MS2 coat protein (input ligand: none): 58.2 nM

Sequence: GUUCGUUUGAUAGGAUAUCGCUAUACAUGAGGAUCACCCAUGUUUACCACGCUGGUUUUUCGUACCGAGAAGGAUUCUGAUGAU [JL JR sub007 mod 2] (Eterna round: R96, puzzle: Same State NG 2)
- apparent KD of MS2 coat protein [1]: 30.5 nM

Sequence: GUUAGGAAUCUAGCAAACAUGAGGAUCACCCAUGUUAGUGGGAAGGAUAUGGUACAGAAACUGUACCAGAAGGUCUUAUUGAUU [Omei SS(NG) 3 AV4] (Eterna round: R96, puzzle: Same State NG 3)
- apparent KD of MS2 coat protein (input ligand: FMN 200 uM): 40.2 nM
- apparent KD of MS2 coat protein [1]: 33 nM
- apparent KD of MS2 coat protein (input ligand: none): 59 nM

Sequence: CGUCCAGCCUGAGCUGGACAAAAGCAUGUACAUGAGGAUCACCCAUGUUCAUGUACAAGCUUUUUGCUCGUCUUACC [salish99_208a_r3_094x] (Eterna round: R96, puzzle: Sensor for hsa-mir-208a)
- apparent KD of MS2 coat protein (input ligand: FMN 200 uM): 760 nM
- apparent KD of MS2 coat protein [1]: 14.3 nM
- apparent KD of MS2 coat protein (input ligand: none): 752 nM

Sequence: AGCUAGUACCGAGGAUAUACAUACAUGAGGAUCACCCAUGUAUACAUGAAAUAAUGAGACUACAUGUAGAAGGCGGUACUAGCA [Mat - Same State NG 2 - JL mod - D45] (Eterna round: R96, puzzle: Same State NG 2)
- apparent KD of MS2 coat protein (input ligand: FMN 200 uM): 16.9 nM
- apparent KD of MS2 coat protein [1]: 43.5 nM
- apparent KD of MS2 coat protein (input ligand: none): 63.4 nM

Sequence: GAGUAGUUGGGAGGAUAUCGAUUGUUAUAGAAUCGAGAAGGUCCUAACAUGAGGAUCACCCAUGUAGGACUAUUCCUGUGUAUC [Parity 75 - Jieux - Same State NG 1] (Eterna round: R96, puzzle: Same State NG 1)
- apparent KD of MS2 coat protein (input ligand: FMN 200 uM): 9.81 nM
- apparent KD of MS2 coat protein [1]: 7.5 nM
- apparent KD of MS2 coat protein (input ligand: none): 10.6 nM

Sequence: UGAAUAGUUACAGGAUAUGAGCCGAAAAUUGGGUCAGAAGGGUGGGUGUUUUGCGCUAUGUGCUACAUGAGGAUCACCCAUGUU [SameState NG1 #34] (Eterna round: R96, puzzle: Same State NG 1)
- apparent KD of MS2 coat protein (input ligand: FMN 200 uM): 888 nM
- apparent KD of MS2 coat protein [1]: 268 nM
- apparent KD of MS2 coat protein (input ligand: none): 338 nM

Sequence: AACAGUCGGCGAGGAUAUGGACGUACGGACUAACCCAUACGGCUCACAUGAGGAUCACCCAUGUUCUAGAAGGCGCCACUGAAA [Soisce] (Eterna round: R96, puzzle: Same State NG 2)
- apparent KD of MS2 coat protein (input ligand: FMN 200 uM): 18.1 nM
- apparent KD of MS2 coat protein [1]: 22.8 nM
- apparent KD of MS2 coat protein (input ligand: none): 66.7 nM

Sequence: ACAUGAAAUUUAGGAUAUUUUGUACCUACAUGUGACAUGAGGAUCACCCAUGUGGUAAGUAUGAGAAAGAAGGAAAAGAUAUGU [Equivalence 9 - Jieux - Same State NG 2] (Eterna round: R96, puzzle: Same State NG 2)
- apparent KD of MS2 coat protein (input ligand: FMN 200 uM): 71.8 nM
- apparent KD of MS2 coat protein [1]: 61.6 nM
- apparent KD of MS2 coat protein (input ligand: none): 70.9 nM

Sequence: GGAGCCAAGGCAGGAUAUUCAAAACAUGAGGAUCACCCAUGUGGGUAAAAGGCCAGAAGGCCUUGGGAGAAGGGCCAUGGCUCG [Xeonanis - 13 mod12] (Eterna round: R96, puzzle: Same State NG 2)
- apparent KD of MS2 coat protein (input ligand: FMN 200 uM): 11.5 nM
- apparent KD of MS2 coat protein [1]: 9.02 nM
- apparent KD of MS2 coat protein (input ligand: none): 15.8 nM

— the supplement of paper PMC9170038
